Data from the DeepSol protein solubility set.

assay: soluble on expression in E. coli; label from the status in PepcDB or PDB records

Sequence | soluble on expression in E. coli
MVFMQKRIIYGIDIARGSPRARELPRYALAILRDGEISHFSMLRRQKIFNMIQRDRPEIIAVDNIFELAADRNELLSLMERLPDGVKLVQVTGGLHPEPLVRIARKHGISLDPENPNDEAEACARLADLGVGHEVSLFEDITKIKVSRARSLGRGGWSQNRYRRKVHGAVLQRSREIENILKDLSREKGIRFEAVNVKGFGGYVRSEFTVYAKRGEVPVHSMASNDAQVSVRSVERDKIRYVPLKPRSQKRKFTIVGLDPGTTVGIAILSLDGDLLYLKSFRGIAPDEVVKIIAEYGKPAVIASDVTPMPGSVEKIRRSFNAVPASPGIEVSAEEKIALGKTFGYSNDHERDALTAALLTYRSYKNIFTRIEKKAPENSDLELIKLHVIRGESIESAIEKVRAASQAREKPAGARAAPEKPEEKAVDESFQRMRETVQRQGEQIQNLQEYVEELKQAMAAKDRKISKLESRLKGFKKEAYSEIRKSKEVQIRDSTIESLKKELSNKNKTVKELRRRSNKLRKIQKMEIRGEGTPVKVIAAFTKESIAETKEKYGLKAGDVVFLEKPSGGGAATAQILVEARVRAVIIPEDISHAAEETFFKGDVPVLRDIQLERADDFAMALEHHHHHH | not soluble
MNKLNICIDIDGTITSPYHFLPYLNDIFNKNITEAECITHNWEELYGSGIRDVYAEFNNKYIHSYDEAKIVEGATEVISTLSKGHNLSFVTARHECLTDVTKNWLSRQGFSDIDVYLLGSDYKVEKARELSCDIFIEDNPLNSVQLADDGVKVILLDTNYNKDVKHQNIVRVSNWIDIEKIIKQGI | not soluble
MGSDKIHHHHHHMQSGMYVSLSSQRALDKRLTTIADNMANVNTVGFRGTEVKFDEVVSRTGNDQNAKIAFVSQGNDYLNTQSGEMLQTGGTLDFAVKGDAWFSIDTPAGPALTRDGRFTMTSTGQLVSVRGYSVLDAGGGPIQLDPNGGEPHVGADGTINQNGRQISQIGLFTADISKGYLRTENSGVITTDRPQAVVDDATIGVMQGYVEQSNVNGISQMTQLIQVSRAFESISASMSQTENSMSETIKTLGGSK | not soluble
MTLRTKDGLTLYTRRWDVESPRAVICLVHGLGEHSGRYEHVARFFNENGISFAAFDLRGHGRSEGKRGHAEYQQLMDDITLFLQSLDYDCPKILYGHSMGGNLALNYILRYDPDIAGGIISAPFLALPKELPKHLFFILKLLNVVAPSIQLSNGIDPNLISRDREVVEAYVSDPLVHDKISPRFILQSLEAGKWALENADRLRKPILLIHGTADQITSYRASQEFAKRAGELCKFVSYEGFYHEPHNEPEKERVLADMLKWIEEVI | not soluble
MGSDKIHHHHHHMINLKELKILHTSDWHLGVTSWTSSRPVDRREELKKALDKVVEEAEKREVDLILLTGDLLHSRNNPSVVALHDLLDYLKRMMRTAPVVVLPGNHDWKGLKLFGNFVTSISSDITFVMSFEPVDVEAKRGQKVRILPFPYPDESEALRKNEGDFRFFLESRLNKLYEEALKKEDFAIFMGHFTVEGLAGYAGIEQGREIIINRALIPSVVDYAALGHIHSFREIQKQPLTIYPGSLIRIDFGEEADEKGAVFVELKRGEPPRYERIDASPLPLKTLYYKKIDTSALKSIRDFCRNFPGYVRVVYEEDSGILPDLMGEIDNLVKIERKSRREIEEVLRESPEEFKEELDKLDYFELFKEYLKKREENHEKLLKILDELLDEVKKSEA | not soluble
MSLSQLFKSFDASEKTQLICFPFAGGYSASFRPLHAFLQGECEMLAAEPPGHGTNQTSAIEDLEELTDLYKQELNLRPDRPFVLFGHSMGGMITFRLAQKLEREGIFPQAVIISAIQPPHIQRKKVSHLPDDQFLDHIIQLGGMPAELVENKEVMSFFLPSFRSDYRALEQFELYDLAQIQSPVHVFNGLDDKKCIRDAEGWKKWAKDITFHQFDGGHMFLLSQTEEVAERIFAILNQHPIIQPEGGSHHHHHH | soluble
MKAERILGALYGQALGDAMGMPSELWPRTRVKAHFGWIDRFLPGPKENNAACYFNRAEFTDDTAMALCLADALLECEGNIDPEIIGRNILAWAERFDAFNKNVLGPTSKIALNAIRDGKPIAALENNGVTNGAAMRVSPLGCLLPPTNLTAFIAEVALASSPTHKSDLAVAGAVVVAWAVSRAVNGDTWQSIADSLPAVAHQAQTARITTFSASLSARLELALNIVRHADGVESASEQLYQIIGAGTSTIESVPCAIAMVELANTDPNRCAVLCANLGGDTDTIGAMATAICGALHGVSAINPQLKQTLDEVNQLDFARYAVALASYRQRREAL | not soluble
GPGSMLRRLGSTLFCSVTLANGTVLKGDLNPHNPSLLLKGITILPDGRVYSGSYDATSGFPLPGSQLEEDGDLYRGDFNTQWQREGRGEAWLADGTHYAGVFKNDEITEGIVRIPNGTTEVVFEGTLSDEAFVKGKLTQSDFVYEGEFSDNEPHGKGKLVFATGAVQEGTFFHGKLHGPDCKMKLDGGFVYVGEFLDGQIRRGTLYTPTYTYEGEFNEHGRAQGEGTQTYLINEPRLTFTGIWTNGALVRGVCMDEYGSAVDWQNNDELQAKVLGGATGKGSESVGLNSYCSARMKEAAQLHSDMQRSYAEDAEAVAQSTGRFPTKMDLGYEGSIAHENEAVMQAQQRQMQDIERSKEVLSDRARDFGPIASGSRGNIIGEIDENMARIQFRRQVGAEEVSAARVDEQFERFMKSFKKPSPLPGAPAQVAQKLNIDGNAPWKAFTPLK | soluble
MAHHHHHHSLDSFIMRLLNKPVPGGVAVVDLGEEGPPPRAFYQGKPVLVVREEGRRWIAVVGIPLSTKPGPQKLEVRAATGNHEERFSVGSKHYREQRITLKNKRQVNPLPEDLKRIERELAEQTAAYRRFSPGLPSNLMLDKPVDGPLSSPFGLRRFFNGEERNPHSGLDFAVPAGTPIKAPAAGKVILIGDYFFNGKTVFVDHGQGFISMFCHLSKIDVKLGQQVPRGGVLGKVGATGRATGPHMHWNVSLNDARVDPAIFIGAFQPEG | soluble
TESPADSFLKVELELNLKLSNLVFQDPVQYVYNPLVYAWAPHENYVQTYCKSKKEVLFLGMNPGPFGMAQTGVPFGEVNHVRDWLQIEGPVSKPEVEHPKRRIRGFECPQSEVSGARFWSLFKSLCGQPETFFKHCFVHNHCPLIFMNHSGKNLTPTDLPKAQRDTLLEICDEALCQAVRVLGVKLVIGVGRFSEQRARKALMAEGIDVTVKGIMHPSPRNPQANKGWEGIVRGQLLELGVLSLLTG | soluble
MKYEVVITSGNSNQAPIGAFFKGDFVTLHLYGGSHTFENLQKDGFYILNTCSPYLIAKSVLDDAGDYEYLDNDGIKIPYLKDSYKIELIEIKSRKIVETKNEFGSSKLMIVEGKPIFEKILNCNTSAYNRADGAVVEMAVLYSRKNMISKEEINDEITRLMKIIKKVGSKNHIELAKKLGV | soluble
MSLDSNSQSRSSSASSIGSESETGNAVVVFGYREAITKQILAYFAQFGEILEDLESELGDTETMRTPGYFFQQAPNRRRISREHGRTWTKLTYANHSSYLRALREHGTIYCGAAIGCVPYKHELISELSRDTYNSMNDVKQTNSISTNQLTQHNQSEVPKSNQTFETKPTNETERNQIKTPSAFGSDNKGNGSISSGRTKRRLSIKDGSSLFLSGTDNIFSTLDGQPTKKRMINRDRSLIGKISGWLFGWNDLEGHHHHHH | soluble
GPGSMLYRTAVPVPADALVQRNLEFTRTAWKAGLRPDQRDANQLRVVEIDFPLLSRDVVQVKCGNTVATATISCDLVEPSPYRPKHGFFEVHARQLLNERDPLDQSKEIKRISMYLTRLLSGSVLETESLCVIPGRRVWSIDAEVIIVNNDGNAQDVAQWAVMTALQHVRRPELTIRGEDVIVHPPHERDPVPLPLHHIPLSFTFAVCANPQEVQLAVRAATLRSAHAPRAGASSGANADEGDGEAEELGWSSDALQVVVDPSLEEATAAACTVSVALNGEGHVCSLEKADGCYVSIAYLEQCMEIATKLTQALLSQMKESMEAHNAKRTEAVRSQFLWAQQRHGIQAIATPGDEGEHARKSAKTEK | soluble
PFWSCLHNQLWNYREADQNRINRNQLPLYGVEGRFERMNQHPNAGSHSFSIGVTEVLNSNLLIELRADDIEYVYQRSPGKIISVIIPTFEALTQFGVATITTQNTGEVEASYSLTFDCSTGVTLMEEQYFIIKPKETSIRSFKIYPTTNQAAKYTCSAILKDSDFSEVDRAECQFSTMATVLDNGSQITPFQPPKSSINDFFESIESIGKKLWEGLRDFITGKACRRKCSSFFDFSCHIQYIC | not soluble
MGSDKIHHHHHHMTQTSSLVINSFREITVNHPLWSHEFLIRCRAGNLFLPDVQILAVQMYKFSKEFNRILASILSCCEDESSQLVILENLFDEMGQGDITQSHPELFRQFTRALGIDDETLAALPTAPETRALIETYLQIPHKYGYLAALGAVCYASEGIVSSLYTQLYKGIIGATPLPKEALIFFEVHIDVDDSHAAKLAAVIEPRIPMNEEDIKVKLAIVEAMDARVQFFNGIQRQISKYSLYPDSWVHFDALL | not soluble
MGACWSDNPKKVLEMLSPMNIIAITRSIPENTPNSWFIYWLTKVEEGEVRENIYAISPTKLEILPDLVKKALKLGYDGVYIDGIEALVIENGFKSVAKFLLHIKDIVLAENKFIILTLDPRALKEEEIKIIEKEFKKLELSLEHHHHHH | not soluble
MGSDKIHHHHHHMKLHQLRALVAIHNAGSILEASKLMHITQPALSRSIKELEREVGFTLLQRSHKGMALTEEGKRVIRHANLVVESIRRLQIEAASIQDAALGAVSIGVTSLTAMLDGVDESILAFRRKYPRVKITITDLRPSQILQRLRDGSLDFAITSQQPLSRLSLDWEALGSIKGRVICHASNRQKFSQSLRTLQYAPWISLDELSDQASQFHQLFEANGLRVPQNTVECTSVMMALKLLKNTESLMTISELAVDQGFTYGIDCEFVAMAVQELIPDYPINLVCIDRHSLTAPAQELFHSLRGQVLKQTRPVGSEVVVHA | not soluble
MRVLLIEKNSVLGGEIEKGLNVKGFMADVTESLEDGEYLMDIRNYDLVMVSDKNALSFVSRIKEKHSSIVVLVSSDNPTSEEEVHAFEQGADDYIAKPYRSIKALVARIEARLRFWGSNVIEIGDLTISPDEEKIIYKGREVEVKGKPFEVLTHLARHRDQIVSKEQLLDAIWEEPEMVTPNVIEVAINQIRQKMDKPLGISTVETVRRRGYRFCYPKPACEE | soluble
MSYSDYPSDIADYSSFDNMMADICNPSSSSSSNRKRQADPAPDNFAKIPAGMATQPLYFPIHYPVNSGWQSFDVNQVYNNHNMNQPGFGWVALPPPMPHNLQIPDQNSYKPRSGLPVPPPMAEFQDVNGIQQNPNEIFKNAPITSAMCTPESDISTSTNLTPDQDSAQLPLTEQELNEEKNFVVNIESPGKLAHYFLPNVESEQEPNEHIPYPYAKSLFPTFGVPVSSDGNVVAEVVDGRLPAVGTRSKYDITVDEIRRRCGAPEHMNQSALYCFFRKSKKREAINRVKQVLTVHNIPMRTMQRQRKVTCFSPFLEEEATALARDLDSISEEFLPINIIAQEMLEKLMSSGNNLDVCHRMLKNTTATITRVIKTLEVRQPKITGQEEKLKGNNLDLSYHNFSLITHGFGHPNSLSHYRSYLSIVERAVLLCEKIQNGQSLLSNEDVIPGQKPFERMSNEYFVEWQMNLYKKKLAKQMEEVEENKSQRGEHQQIHQHQLYQQHHTNTHPPMPLMPPSQMNLCPPITPIPPQNVYYY | not soluble
MGSDKIHHHHHHMQSLHGNCLIAYARHKYILTMVNGEYRYFNGGDLVFADASQIRVDKCVENFVFVSRDTLSLFLPMLKEEALNLHAHKKVSSLLVHHCSRDIPVFQEVAQLSQNKNLRYAEMLRKRALIFALLSVFLEDEHFIPLLLNVLQPNMRTRVCTVINNNIAHEWTLARIASELLMSPSLLKKKLREEETSYSQLLTECRMQRALQLIVIHGFSIKRVAVSCGYHSVSYFIYVFRNYYGMTPTEYQERSAQRLSNRDSAASIVAQGNFYGTDRSAEGIRL | not soluble
